The results in this text go back to the supplement of paper PMC9170038.

The series deals with MS2 coat protein. Briefly: apparent KD of MS2 coat protein; designed switch direction (-1 OFF switch, 1 ON switch): -1; higher = weaker reporter binding. The method in brief:
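An oligonucleotide input, 200 uM small-molecule ligand, or no input was present during titration of SNAP-549-labelled MS2 coat protein, which was doubled from 0.7 or 1.5 nM to 3 µM. Designed RNA switches had been transcribed on Illumina chips by stalled E. coli RNA polymerase. Apparent KD per design is the median over clusters of curves fitted to normalised cluster fluorescence.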

Setting [1] is: input ligand: microRNA oligo, concentration not stated.
Where [2] appears, read: Eterna round: R95, input ligand: FMN 200 uM.
The mark [3] stands for this setting: Eterna round: R95, input ligand: microRNA oligo, concentration not stated.
[4] abbreviates: Eterna round: R95, input ligand: none.

Regarding “CGCACGUAAGGAUAUACAUGAGGAUCACCCAUGUGUAAAUACUGCAACGUGGUGAAUAGUAGAAGGUACGAUGC [Eternabot (L2) Solution 56] (Eterna round: R97, puzzle: Exclusion 3)”, the “apparent KD of MS2 coat protein” value came out at 55.5 nM (input ligand: FMN 200 uM) and 18.3 nM (input ligand: none).

Consider “CGCCCGGGAGGAUAUCCAAUAUAUGACAUGAGGAUCACCCAUGUUUCCACUCGUACCUCCGGAGAAGGCCCGGCGA [Ex5 #28] (Eterna round: R97, puzzle: Exclusion 5)”, for which the “apparent KD of MS2 coat protein” value (input ligand: FMN 200 uM) came out at 20.2 nM and the “apparent KD of MS2 coat protein” value (input ligand: none) was determined as 24.9 nM.

For “CGCGUUUAUGUAGGAUAUGCCUGGCGUGCCUUAGCAGAAGGACAUGAGGAUCACCCAUGUAACAUGAGGCUCACCCAUGUCGCA (Eterna round: R96, puzzle: Exclusion NG 1)”, the “apparent KD of MS2 coat protein” value runs as follows: (input ligand: FMN 200 uM) 201 nM; under setting [1], 120 nM; (input ligand: none) 167 nM.

As for “CGCUGGACAGGAUAUGUUCUUGGGCACUUGAGGAUCACCCAAGUCAUCGGGACAACAGGCACAGAAGGGUUUAUGG [salish99_ex5_r4_025] (Eterna round: R97, puzzle: Exclusion 5)”, the “apparent KD of MS2 coat protein” value runs as follows: (input ligand: FMN 200 uM) 31.6 nM; (input ligand: none) 43.9 nM.

For the sequence “CGCUGGACAGGAUAUGUUCUUGGGCACUUGAGGAUCACCCAAGUCAUCGGGACAUCAGGCACAGAAGGGUCGUUGG [salish99_ex5_r4_029] (Eterna round: R97, puzzle: Exclusion 5)”, the “apparent KD of MS2 coat protein” value was 22.2 nM (input ligand: FMN 200 uM) and 25.6 nM (input ligand: none).

On to “CGCUGGUGAGGAUAUGGGUGUUUUUACAUGAGGAUCACCCAUGUGGAGUAGCAUGUGGGUCCAGAAGGCGCGAGUG [-24.2, -22.5 kcal, 21% A] (Eterna round: R97, puzzle: Exclusion 5)”, for which the “apparent KD of MS2 coat protein” value (input ligand: FMN 200 uM) was determined as 398 nM and the “apparent KD of MS2 coat protein” value (input ligand: none) was 309 nM.

On to “CGGAAAUCCAAGGAUAUGCUAGACGAAAGUCUAGCAGAAGGUGGAACAUGAGGAUCACCCAUGUGUCCAAUCCG [Mat - Exclusion 6 - Eli Mod - D25] (Eterna round: R97, puzzle: Exclusion 6)”, for which the “apparent KD of MS2 coat protein” value is, setting by setting: (input ligand: FMN 200 uM) 19.1 nM; (input ligand: none) 14.5 nM.

As for “CGGAUGUAAGGAUAUUAGUAGUAGUCAGAAAAGACUAUUACUGAGAAGGUACAUGAGGAUCACCCAUGUUUCCG [Mat - Exclusion 4 - Eli Mod - D43] (Eterna round: R97, puzzle: Exclusion 4)”, the “apparent KD of MS2 coat protein” value by setting is: (input ligand: FMN 200 uM) 20.5 nM; (input ligand: none) 15.8 nM.

In the case of “CGGAUGUUAGGAUAUUAGUAGUAGUCAGAAAAGACUAUUACUGAGAAGGAACAUGAGGAUCACCCAUGUAUCCG [Mat - Exclusion 4 - Eli Mod - D45] (Eterna round: R97, puzzle: Exclusion 4)”, the “apparent KD of MS2 coat protein” value runs as follows: (input ligand: FMN 200 uM) 33.1 nM; (input ligand: none) 15.1 nM.

With “CGGCAAAGGUAGGAUAUGCUAGACGAUAGUCUAGCAGAAGGACCUACAUGAGGAUCACCCAUGUGUCCAAGCCG [Mat - Exclusion 6 - Eli Mod - D19] (Eterna round: R97, puzzle: Exclusion 6)”, the “apparent KD of MS2 coat protein” value was 27.9 nM (input ligand: FMN 200 uM) and 105 nM (input ligand: none).

In the case of “CGGCAACAUGUCAGGAUAUAUGUACCGCUGGGUGGAUAGAAGGGACAUGAGGAUCACCCAUGUCGUCCAGCCGG [Tisove] (puzzle: Brourd's mod of Exclusion 4)”, the “apparent KD of MS2 coat protein” value was 19.4 nM under setting [2], 12.6 nM under setting [3] and 13.9 nM under setting [4].

As for “CGGCAAUCCAAGGAUAUGCUAGACGAAAGUCUAGCAGAAGGUGGAACAUGAGGAUCACCCAUGUGUCCAAGCCG [Eli x6 4.04] (Eterna round: R97, puzzle: Exclusion 6)”, the “apparent KD of MS2 coat protein” value runs as follows: (input ligand: FMN 200 uM) 21.1 nM; (input ligand: none) 15.3 nM.

In the case of “CGGCAUGUAGAAGGAUAUCUGCACGAUUAGUGCAGAGAAGGUCUAACAUGAGGAUCACCCAUGUAGAUCAUUAACCGAUUAAUU [ENG1/8-A1] (Eterna round: R96, puzzle: Exclusion NG 1)”, the “apparent KD of MS2 coat protein” value (input ligand: FMN 200 uM) was 21.9 nM, the “apparent KD of MS2 coat protein” value under setting [1] worked out at 10.7 nM and the “apparent KD of MS2 coat protein” value (input ligand: none) worked out at 12 nM.

As to “CGGCAUGUCUGAGGAUAUCUGCACGUGUAGUGCAGAGAAGGCAGAACAUGAGGAUCACCCAUGUAGAUCAUUAACCGAUUAAUU [ENG1/7-A3] (Eterna round: R96, puzzle: Exclusion NG 1)”, the “apparent KD of MS2 coat protein” value (input ligand: FMN 200 uM) was 201 nM, the “apparent KD of MS2 coat protein” value under setting [1] was 162 nM and the “apparent KD of MS2 coat protein” value (input ligand: none) is 184 nM.

As to “CGGCGGGCAGGAUAUGGAAAUAAUAACAUGAGGAUCACCCAUGUAAAUAAAUGGGAAUAACCAGAAGGGCUUGUUG [-18.2, -17.7 kcal, A 37%] (Eterna round: R97, puzzle: Exclusion 5)”, the “apparent KD of MS2 coat protein” value (input ligand: FMN 200 uM) is 49.7 nM and the “apparent KD of MS2 coat protein” value (input ligand: none) is 90.9 nM.

Turning to “CGGGAGGGACAAGCUUUUUGCACGUCUGUUAUUGAUGCUACAUGAGGAUCACCCAUGUUUAAGAUGUGUGAGGAUGG [JR_SV3TOV2_Sub053] (puzzle: Sensor v3, turn-off variant 2)”, the “apparent KD of MS2 coat protein” value runs as follows: under setting [2], 26.2 nM; under setting [3], 57.6 nM; under setting [4], 31.3 nM.

Consider “CGGGCCGGCCUUCCGGCCGGCCCGACAUGAGGAUCACCCAUGUAGGAUAUCCCGGCUGCCGGCCGGGAGAAGGGCGUGCGUCCG [-50.4, -49.4 kcal, 14% A] (Eterna round: R96, puzzle: Exclusion NG 3)”, for which the “apparent KD of MS2 coat protein” value runs as follows: (input ligand: FMN 200 uM) 151 nM; under setting [1], 87.8 nM; (input ligand: none) 137 nM.

As to “CGGGCGCGAGGAUAUACAUGAGGAUCACCCAUGUAACGGCGAGCAAUGUUUGUUGCGUGUAGAAGGUGUGUUUG [-20.1, -18.7 kcal, A 27%] (Eterna round: R97, puzzle: Exclusion 3)”, the “apparent KD of MS2 coat protein” value (input ligand: FMN 200 uM) was determined as 112 nM and the “apparent KD of MS2 coat protein” value (input ligand: none) was found to be 155 nM.

“CGGUACUGAGGAUAUACAUGAGGAUCACCCAUGUGUUCCAGCUAGCGUACUGGCAUUAGUAGAAGGCGGUGCUG [JL-ex3-3.17 Brourd mod] (puzzle: Exclusion 3)”: the “apparent KD of MS2 coat protein” value under setting [2] was determined as 31.4 nM, the “apparent KD of MS2 coat protein” value under setting [3] is 12.8 nM and the “apparent KD of MS2 coat protein” value under setting [4] was found to be 14.3 nM.

“CGGUACUGAGGAUAUACAUGAGGAUCACCCAUGUGUUCUAGCUAGCGUACUGGCAUUAGUAGAAGGCGGUGCUG [JL-ex3-3.18 Brourd mod] (puzzle: Exclusion 3)”: the “apparent KD of MS2 coat protein” value under setting [2] is 28.9 nM, the “apparent KD of MS2 coat protein” value under setting [3] stood at 15.4 nM and the “apparent KD of MS2 coat protein” value under setting [4] was 17.2 nM.

On to “CGUAGCAAAGUGAGGAUAUCUAGAGCGAUAGCUCUAGAGAAGGCACAUGAGGAUCACCCAUGUGGUCAGCUACG [BmEx4/8-A4] (Eterna round: R97, puzzle: Brourd's mod of Exclusion 4)”, for which the “apparent KD of MS2 coat protein” value (input ligand: FMN 200 uM) was 393 nM and the “apparent KD of MS2 coat protein” value (input ligand: none) is 82.4 nM.

Consider “CGUAGCAAUGUGAGGAUAUCUAGAGCCUCGGCUCUAGAGAAGGCACAUGAGGAUCACCCAUGUGAUUAGCUACG [BmEx4/9-B2] (Eterna round: R97, puzzle: Brourd's mod of Exclusion 4)”, for which the “apparent KD of MS2 coat protein” value was 597 nM (input ligand: FMN 200 uM) and 405 nM (input ligand: none).
